This passage reports IFNα secretion results from US20190381169A1, “PHARMACEUTICAL COMBINATIONS FOR IMMUNOTHERAPY” (Technische Universitat Dresden, priority 2014, published 2019).

The assay deals with T1, p75^NTR (Homo sapiens, UniProt P08138).
T1 sequence (P08138 29-427): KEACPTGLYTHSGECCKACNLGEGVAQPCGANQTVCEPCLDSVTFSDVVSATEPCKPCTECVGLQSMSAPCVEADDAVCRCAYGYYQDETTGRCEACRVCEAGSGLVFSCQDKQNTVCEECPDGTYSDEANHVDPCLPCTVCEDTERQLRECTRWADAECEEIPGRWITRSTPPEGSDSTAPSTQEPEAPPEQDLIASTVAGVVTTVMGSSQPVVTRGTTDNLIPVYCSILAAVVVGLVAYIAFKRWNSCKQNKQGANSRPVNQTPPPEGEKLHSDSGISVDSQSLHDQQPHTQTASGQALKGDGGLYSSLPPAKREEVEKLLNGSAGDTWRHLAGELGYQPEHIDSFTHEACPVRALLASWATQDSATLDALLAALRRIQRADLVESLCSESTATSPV
Briefly: IFNα secretion by ODN 2216 stimulated human PDC (ELISA). The assay is classed as cell-based. More on the design: nerve growth factor receptor p75^NTR, which is expressed by human and murine plasmacytoid dendritic cells (PDC); endogenous in cells; host or cells: primary human plasmacytoid dendritic cells (BDCA-4+ selection) from buffy coats or from peripheral blood of allergic donors. To be noted: ODN 2216 plus NGF 200 ng/ml vs ODN 2216 without NGF; 14 hours; p=0.0031. How it is done: Blood samples used for cell purification were obtained from two different sources: Fresh buffy coat samples, not older than 8 hours, served as the source of PDC used in oligodeoxynucleotides (ODN) and anti FcεRIα stimulation experiments. […]
Alike CD4^+ T helper cells isolation from peripheral blood mononuclear cells, total cell numbers were determined prior to purification of PDC. […] Magnetic cell separation procedure as described for first LS column was repeated for second MS column except that washing of the MS column was carried out with 500 μl PBS E/B. Purified PDC were counted and purity was assessed by flow cytometric analysis after staining the cells with monoclonal mouse anti human BDCA2-PE (Miltenyi Biotech) and monoclonal mouse anti human CD271-APC (Miltenyi Biotech). […]
A general note: In an ELISA, binding on a coated surface is turned into a signal by an enzyme label.

Turning to “NGF: Nerve growth factor, best characterized neurotrophin; natural p75^NTR agonist (R&D Systems)”, the IFNα secretion entry is given as “significant reduction”.
